# According to patent US20250388664A1 (BIOARCTIC, published 2025):
# Changes are numbered by the printed parent chain. Numbers in names are those of the source. Read-outs that look alike come from different tables or passages of the source.
# T1: AβpE11-28 monomer (UniProt P05067 682-699, pyroglutamate at position 11 (N-terminal residue))
# T1 construct: range 11-28 (Aβ numbering)
# T1 peptide (looked up): EVHHQKLVFFAEDVGSNK
# B1: H2L7 (antibody, human IgG1, kappa, V domains shown)
# VH: EVQLVQSGAEVKKPGASVRLSCKASGYSFTGFTMNWVRQALGQGLEWMGLINPYNGVTTYNQKFKGRLTMTRDMSTRTVYMDLSSLRYEDTAVYYCTREGNWEGVYWGQGTLVTVSS
# VL: EIVLTQSPLSLSVTLGQSASISCRSSQSLLDSNGKTYLHWFILRPGQSPRRLIYLVSILDSGVPDRFSGSGSGTDFTLKISRVEAEDVGVYYCVQGTHFPFTFGSGTKLEIKR
# notes: Humanized IgG1/kappa, expressed in CHO cells; also called humanized Pyr12.2 variant H2L7; VH2/VL7
# B2: H9L8 (antibody, human IgG1, kappa, V domains shown)
# VH: QVQLVQSGPEVKKPGSSVKVSCKASGYSFTGFTMNWVRQTPGKGLEWIGLINPYNGVTTYNQKFKGRVTITADESTRTAYMELLSLTYEDTAVYYCTREGNWEGVYWGQGTPVTVSA
# VL: B1 VL with I2V, L11I, V63I, S105G
# notes: Humanized IgG1/kappa, expressed in CHO cells; also called humanized Pyr12.2 variant H9L8; VH9/VL8
# B3: H2L7-K12V/R71A (antibody, human IgG1, kappa)
# heavy: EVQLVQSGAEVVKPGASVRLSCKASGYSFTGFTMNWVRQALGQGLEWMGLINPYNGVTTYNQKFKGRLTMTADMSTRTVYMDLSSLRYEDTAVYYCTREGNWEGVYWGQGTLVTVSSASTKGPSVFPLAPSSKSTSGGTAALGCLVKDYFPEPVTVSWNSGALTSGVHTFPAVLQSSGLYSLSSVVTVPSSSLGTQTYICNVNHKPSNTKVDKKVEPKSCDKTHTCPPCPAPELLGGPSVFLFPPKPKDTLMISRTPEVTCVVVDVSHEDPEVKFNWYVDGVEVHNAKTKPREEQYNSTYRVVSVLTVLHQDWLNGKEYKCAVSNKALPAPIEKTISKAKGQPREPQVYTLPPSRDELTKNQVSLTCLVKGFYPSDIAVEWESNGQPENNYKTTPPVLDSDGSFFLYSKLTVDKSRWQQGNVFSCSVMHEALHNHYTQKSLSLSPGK
# light: EIVLTQSPLSLSVTLGQSASISCRSSQSLLDSNGKTYLHWFILRPGQSPRRLIYLVSILDSGVPDRFSGSGSGTDFTLKISRVEAEDVGVYYCVQGTHFPFTFGSGTKLEIKRTVAAPSVFIFPPSDEQLKSGTASVVCLLNNFYPREAKVQWKVDNALQSGNSQESVTEQDSKDSTYSLSSTLTLSKADYEKHKVYACEVTHQGLSSPVTKSFNRGEC
# notes: VH variant of H2L7; VL and constant domains identical to H2L7
# Key:
# [1] = molecular target: T2, AβpE3-40 monomer (UniProt P05067 674-711, pyroglutamate at position 3 (N-terminal residue)); assay: SPR, antibody immobilised, monomer injected, 1:1 fit
# T2 construct: range 3-40 (Aβ numbering); Synthetic peptide (Bachem/Anaspec), verified monomeric by SEC; also called monomeric AβpE3-40
# Method: (§1) Single cycle kinetics with the antibodies immobilized on a CM5 chip was used to measure the binding of the antibodies to the AβpE3-40 monomer. For the measurements, 5 μg/ml of analyte antibody was immobilized on the chip. […] Regeneration of the surface between cycles was done by injecting 30 μl 3 M MgCl₂. The binding data was fitted to a 1:1 interaction model.
# (§2) In all SPR experiments, 1×HBS-EP+ (Cytiva, cat. no. BR100669) was used to dilute antibodies and target antigens. Experiments were performed at 25° C.
# [2] = molecular target: T2, AβpE3-40 monomer; assay: as above; remark: listed apart in the source
# Method: as §1, §2
# (§3) Affinity evaluation and KD determination by surface plasmon resonance: Binding interactions between antigens and antibodies were evaluated by SPR using a Biacore 8K instrument (Cytiva) according to standard procedures.
# [3] = molecular target: T3, Aβ1-28 monomer (UniProt P05067 672-699); assay: inhibition ELISA, antigen titrated in solution, AβpE3-40 coat
# T3 construct: range 1-28 (Aβ numbering)
# Method: (§4) The humanized antibodies were incubated at a fixed concentration (0.5 μg/ml) with titrating concentrations of the different Aβ antigens. After incubation for 45 min at 900 rpm to reach equilibrium, the antibody-Aβ samples were added to a blocked and washed ELISA plate with an AβpE3-40 coat (0.5 μM). The samples were incubated on the plate for 25 min without shaking followed by washing, incubation with detection antibody, another washing step and finally incubation with alkaline phosphatase substrate.
# [4] = molecular target: T4, Aβ2-28 monomer (UniProt P05067 673-699); assay: as above
# T4 construct: range 2-28 (Aβ numbering)
# Method: as §4
# [5] = molecular target: T5, Aβ3-28 monomer (UniProt P05067 674-699); assay: as above
# T5 construct: range 3-28 (Aβ numbering)
# Method: as §4
# [6] = molecular target: T6, AβpE3-28 monomer (UniProt P05067 674-699, pyroglutamate at position 3 (N-terminal residue)); assay: as above
# T6 construct: range 3-28 (Aβ numbering)
# Method: as §4
# [7] = molecular target: T7, Aβ4-28 monomer (UniProt P05067 675-699); assay: as above
# T7 construct: range 4-28 (Aβ numbering)
# Method: as §4
# [8] = molecular target: T8, Aβ5-28 monomer (UniProt P05067 676-699); assay: as above
# T8 construct: range 5-28 (Aβ numbering)
# Method: as §4
# [9] = molecular target: T1, AβpE11-28 monomer; assay: as above
# Method: as §4
# [10] = molecular target: T2, AβpE3-40 monomer; assay: as above
# Method: as §4, with “concentration (0.1” for “concentration (0.5”
# [11] = molecular target: T9, Aβ1-40 monomer (UniProt P05067 672-711); assay: as above
# T9 construct: range 1-40 (Aβ numbering)
# Method: as §4, with “concentration (0.1” for “concentration (0.5”
# [12] = molecular target: T10, AβpE3-42 protofibrils (UniProt P05067 674-713, pyroglutamate at position 3 (N-terminal residue)); assay: as above
# T10 construct: range 3-42 (Aβ numbering); Soluble aggregates made from AβpE3-42 peptide, purified in the void peak of SEC; also called AβpE3-42 PF
# Method: as §4, with “concentration (0.1” for “concentration (0.5”
# [13] = molecular target: T11, Aβ1-42 protofibrils (UniProt P05067 672-713); assay: as above
# T11 construct: range 1-42 (Aβ numbering); Soluble aggregates made from Aβ1-42 monomer
# Method: as §4, with “concentration (0.1” for “concentration (0.5”
# [14] = molecular target: T5, Aβ3-28 monomer; assay: as above; remark: listed apart in the source
# Method: as §4
# [15] = molecular target: T6, AβpE3-28 monomer; assay: as above; remark: listed apart in the source
# Method: as §4
# [16] = molecular target: T2, AβpE3-40 monomer; assay: as above; remark: listed apart in the source
# [17] = molecular target: T9, Aβ1-40 monomer; assay: as above; remark: listed apart in the source
# [18] = molecular target: T10, AβpE3-42 protofibrils; assay: as above; remark: listed apart in the source
# [19] = molecular target: T11, Aβ1-42 protofibrils; assay: as above; remark: listed apart in the source
# [20] = molecular target: T10, AβpE3-42 protofibrils; assay: SPR, protofibrils immobilised, antibody injected, 1:1 fit, apparent
# Method: (§5) Single cycle kinetics was also used to measure binding of the antibodies to AβpE3-42 protofibrils. […] Regeneration of the surface between cycles was done by injecting 30 μl 10 mM glycine-HCl pH 1.7. The binding data was fitted to a 1:1 interaction model.
# as §2
# [21] = molecular target: T10, AβpE3-42 protofibrils; assay: as above; remark: listed apart in the source
# Method: as §5, §2, §3
# [22] = molecular target: T10, AβpE3-42 protofibrils; assay: SPR, protofibrils immobilised, antibody injected, 1:1 fit, apparent; Table 10; apparent KD on AβpE3-42 protofibrils
# Method: as §5, §2
# [23] = molecular target: T10, AβpE3-42 protofibrils; assay: SPR, protofibrils immobilised, antibody injected, 1:1 fit, apparent; apparent KD on AβpE3-42 protofibrils
# Method: as §5, §2
# [24] = molecular target: T3, Aβ1-28 monomer; assay: inhibition ELISA, antigen titrated in solution, AβpE3-40 coat; remark: listed apart in the source
# Method: as §4
# [25] = molecular target: T10, AβpE3-42 protofibrils; assay: SPR, protofibrils immobilised, antibody injected, 1:1 fit, apparent; binding to AβpE3-42 protofibrils; KD in pM
# Method: as §5, §2, §3
# T3 sequence (P05067 672-699): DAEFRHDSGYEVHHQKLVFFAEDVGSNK
# T9 sequence (P05067 672-711): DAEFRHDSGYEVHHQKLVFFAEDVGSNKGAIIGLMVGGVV
# T6 sequence (P05067 674-699): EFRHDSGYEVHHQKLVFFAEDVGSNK
# T10 sequence (P05067 674-713): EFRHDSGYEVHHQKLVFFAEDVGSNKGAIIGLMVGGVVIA
# T2 sequence (P05067 674-711): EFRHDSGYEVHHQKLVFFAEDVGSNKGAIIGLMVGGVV
# T11 sequence (P05067 672-713): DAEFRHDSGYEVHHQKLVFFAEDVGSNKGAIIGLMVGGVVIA
# T4 sequence (P05067 673-699): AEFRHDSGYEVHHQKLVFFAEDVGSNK
# T8 sequence (P05067 676-699): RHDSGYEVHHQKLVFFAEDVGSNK
# T7 sequence (P05067 675-699): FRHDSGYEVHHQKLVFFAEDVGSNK
Binder,Kd [1] [nM],koff [1] [s⁻¹],kon [1] [M⁻¹ s⁻¹],Kd [2] [nM],koff [2] [s⁻¹],kon [2] [M⁻¹ s⁻¹],IC50 [3] [nM],IC50 [4] [nM],IC50 [5] [nM],IC50 [6] [nM],IC50 [7] [nM],IC50 [8] [nM],IC50 [9] [nM],IC50 [10] [nM],IC50 [11] [nM],IC50 [12] [nM],IC50 [13] [nM],IC50 [14] [nM],IC50 [15] [nM],IC50 [16] [nM],also measured
B1,2.54,0.000125,50500,2.54,0.000125,50500,> 12500,> 12500,1870,5.5,> 12500,> 12500,> 12500,2.6,> 12500,2.5,> 500,2350,3.6,2.35,IC50 [17]: > 500 nM; IC50 [18]: 3 nM; IC50 [19]: > 132 nM; koff [20]: 1.79e-05 s⁻¹; kon [20]: 107000 M⁻¹ s⁻¹; koff [21]: 1.79e-05 s⁻¹; kon [21]: 107000 M⁻¹ s⁻¹; Kd [22]: 0.173 nM
B2,2.7,0.000139,53700,–,–,–,> 12500,> 12500,1790,3.5,> 12500,> 12500,> 12500,2.1,> 12500,4.9,> 500,–,–,–,koff [20]: 2.05e-05 s⁻¹; kon [20]: 44300 M⁻¹ s⁻¹; Kd [23]: 0.464 nM
B3,–,–,–,4.14,0.000233,59000,–,–,–,–,–,–,–,–,–,–,–,2820,3,1.69,IC50 [24]: 10200 nM; IC50 [17]: > 500 nM; IC50 [18]: 3.58 nM; IC50 [19]: > 132 nM; koff [21]: 2.92e-05 s⁻¹; kon [21]: 61200 M⁻¹ s⁻¹; Kd [25]: 0.477 nM
